The nanobody polyreactivity screen of Harvey et al. (2022)

Assay: yeast display, Sf9 membrane polyspecificity reagent, FACS + sequencing; frameworks hold sequencing errors
In short: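 Nanobodies came from a synthetic yeast display library in Saccharomyces cerevisiae BJ5465, induced with galactose for 36–48 hours and stained for 1 hour at 4 °C with 10% biotinylated, detergent-solubilized Sf9 membrane reagent. Cells were enriched on streptavidin microbeads and then FACS-sorted, with low and high (top ~1%) gates set on anti-HA fluorescence for expression and streptavidin fluorescence for reagent binding. Each polyreactivity label reflects the gate a clone came from. Genes were amplified by colony PCR, sequenced by MiSeq 2 × 250 and filtered by CDR length.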

| Sequence | polyreactivity (PSR sort gate) |
| --- | --- |
| QVQLVESGGGLVQAGGSLRLSCAGSGSIFGEYVMGCYRQATVKERELVADISWRDGDTYYADSVKGRFTISRDNAKNTVYLQMNSLKPEDTAVYYFAADVIVPESYGYWPLSYYYLGQGTQVTVSS | low polyreactivity |
| QVQLVESGGGLVQAGGSLRLSCAGSGSIFSIYAMGWYRQAPGKERELVAAIRYDGGSTYYADSVKGRFTISRDNAKNTVYLQMNSLKPEDTAVYYCAAKVYFRRRGLHPYDYWGQGTQVNVSS | low polyreactivity |
| QVQLVESGGGLVQAGGSLRLSCAGSGSSFSNYAMRGYRQATGKERELVAVITTGASTYYADSLKGRFTISRDNAKNTVYLQLNSLKPEDSAVYACAKGKISRETPGIYWSYSYGYWGQGTQVTVSS | high polyreactivity |
| QVQLVESGGGLVQAGGSLRLSCAGSGSTFGRYAMGWYRQAPGKERELVAAITSDTGNTNYADSVKGRFTISRDNAKNTVYLQMNSLKPEDTAVYYCAAATFWVLWGHVIGNYDSWGQGTQVTVSS | low polyreactivity |
| QVQLVESGGGLVQAGGSLRLSCAGSGSTFRSNAMGWYRQAPGKERELVAAISQRGGSTYYADSVKGRFTISRDNAKNTVYLQMNSLKPEDTAVYYCAARLYRGWRPFYYWGQGTQVSVSS | high polyreactivity |
| QVQLVESGGGLVQAGGSLRLSCAGYGSIFWWYPMVWYRQAPGKERELVASISWSGTSTYYADSVKGRFTISRDNAKNTVYLQMNSLKPEDTAVYYCNADVYWPGTPYTHDYWGQGTQVTVSS | low polyreactivity |
| QVQLVESGGGLVQAGGSLRLSCAPSGFIFRLNGMGWYIQAPGKERELVATIDSGSSTNYADSVKGRFTISRDNAKNTVYLQMNSLKPEDTAVYYCAAVVISYYTHGDYDYWGQGTQVTVSS | low polyreactivity |
| QVQLVESGGGLVQAGGSLRLSCAPSGFIYSKYVIGWNRPAPGKERELVAAITRSGSSTYYADSVKGRFTISRDNAKNTDYLQMNSLKPEDTAVYYCAADGGYYDDDYWGQGTQVTVSS | high polyreactivity |
| QVQLVESGGGLVQAGGSLRLSCAPSGGTFYANDMGWYRQAPGKERELVATISKSGGSTYYAESVKRPFTISRDNAKNTVYCQMNSLKPEVTAVYYCAARTTYLYGMYYWGQGTQVTVSS | low polyreactivity |
| QVQLVESGGGLVQAGGSLRLSCAPSGIIFYYYAMGWYRQAPGKERELVAAITGTGSRTYYADSVKGRFTISRDNAKNTVYLQMNSLKPEDTAVYYCNARSFATGSKVPARGYWGQGTQVTVSS | high polyreactivity |
| QVQLVESGGGLVQAGGSLRLSCAPSGITFLHYAMGWYRQAPGKERELVAAITRGGITYYADSVKGRFTISRDNAKNSVYLLMNSLKPEDTAVYYCNALGFGSNYDYWGQGTQVTVSS | high polyreactivity |
| QVQLVESGGGLVQAGGSLRLSCAPSGITFVKNVMGWYRQAPGKEREFVAAISTIGARTYYADSVKGRFTISRDNAKNTVYLQMNSLIPEDTAVYYCNAYKSGYGQEYDYWGQGTQVTVSS | high polyreactivity |
| QVQLVESGGGLVQAGGSLRLSCAPSGLTFSNYAMGWYRQAPCKERELVAGISSSGGTTYYADSVKGRFTISRDNAKNTVFLQMNSLKPEDTAVYYCATRRHYGSFWYDYWGQGTQVTVSS | high polyreactivity |
| QVQLVESGGGLVQAGGSLRLSCAPSGNIFGYYVMAWYRQAPGTERELVAAITWSAGTTNYADSVKGRFTISRDNAKNTVYLQMNSLKPEDTAVYYFAVTWWYQDYDLTWYLYDYWGQGTEVTVSS | low polyreactivity |
| QVQLVESGGGLVQAGGSLRLSCAPSGRIFGTYAMGWYRQAPGKERELVASIRSRGGRTYYADSVKGRFTISRDNAKNTVYLQMNSLKPEDTAVYYCAADVGVYYYSFYYWGQGTQVTVSS | high polyreactivity |
| QVQLVESGGGLVQAGGSLRLSCAPSGRIFRYYAMGWYRQAPGKERELVATIRSGGSTNYADSVKGRFTISRDNEKNTVYLQMNSLKPEDTAVYYCAATGGILSTYDYWGQVTQVTVSS | high polyreactivity |

| Sequence | polyreactivity (PSR sort gate) |
| --- | --- |
| QVQLVESGGGLVQAGGSLRLSCAPSGRIFSYNTMGWYRQAAGKERELVAAISSSGGSTYYADSVKGRFTISRDNAKNTFYLQMNSLKPEDTALYYCNAVGRFSTRREYWGQGTQVTVSS | high polyreactivity |
| QVQLVESGGGLVQAGGSLRLSCAPSGRIFYPYAMGWYRQAPGKERELVAAISSRGDSTYYADSVKGRFTISRDNAKNTVYLQMNSLKPEDSAVYYCAAVYGSFPTRLYYWGQGTQVTVSS | high polyreactivity |
| QVQLVESGGGLVQAGGSLRLSCAPSGRNFWYYGMVWYRPAPGRERELVAAISRSGGRTSYADSVKGRFTISRDNAKNTVYLQMNSLKPEDTAVYYCATDGYYRYGYWGQGTQVTVSS | high polyreactivity |
| QVQLVESGGGLVQAGGSLRLSCAPSGRNYDRNAMGWYRQAPGKERELVARIDPGDDTNYADSVKGRFTISRDNAKNTVYLQMNSRKPEDTAVYDCASDPDYFLYRTAYYEFDYWGQGTQVTVSS | low polyreactivity |
| QVQLVESGGGLVQAGGSLRLSCAPSGRTFRTNTMGWYRQAPGKESELVAAINWRGGSTYYADSVKGRFTISRDNAKNTVYLQMNSLKPEDTAVYYCNAQQGRYKYSGRYDYWGQGTQVTVSS | low polyreactivity |
| QVQLVESGGGLVQAGGSLRLSCAPSGRTFSENAMGWYRQAPGKERELVAAISGSGGRTYYADSVMGRFTISRDNAKNSVFLQMNSLKPEVTAVYYCAKVTRYGSTYDYWGQGTQVTVSS | high polyreactivity |
| QVQLVESGGGLVQAGGSLRLSCAPSGSIFGVYAMGWYRQAPGKERELVAAISSRGSSTYYADSVKGRFTISRDNAKNTVYLQMNSLKPEDTAVYYCAARPGIRSYPPGYGYWGQGTQVTVSS | high polyreactivity |
| QVQLVESGGGLVQAGGSLRLSCAPSGSIFNYNIGSYRQAPVKERELVAAVSTNYADSVKGRFTISRDNAKNTVYIQMNSLKPADSAVYYCGVTPEKSCDEYDYWGQGTQVTVSS | low polyreactivity |
| QVQLVESGGGLVQAGGSLRLSCAPSGSIFPYYAMGWYRQAPGKERELVAAISGSDGTTYYADSVKGRFTISRDNAKNTVYLQMNSLKPEDTAVYYCAVELPELYYYFAYEYWGQGTQVTVSS | high polyreactivity |
| QVQLVESGGGLVQAGGSLRLSCAPSGSIFVKNAMGWYRQAPGKERELVAFITIRTATTYYADSVKGRFTISRDNAKNTVYLQMNSLKPEDTAVYYCAAAKRQRGYLQREGNYWGQGTQVTVSS | low polyreactivity |
| QVQLVESGGGLVQAGGSLRLSCAPSGSILRSYDMGWYRQAPGTERELVAAISSSGGSTYYADSVKGRFTISRDNAKNTVYLQMNSLKQEDTAVYYCAAATSRRFDYWGQGTQVTVSS | high polyreactivity |
| QVQLVESGGGLVQAGGSLRLSCAPSGSTFARNAMGWYRQAPGKERDLVAAIATSGGRTYYADTVKGRFTISRDIAKNTVYLQMNSLKAEDTAVYYCAAAFSLGMYWGQGTQVTVSS | high polyreactivity |
| QVQLVESGGGLVQAGGSLRLSCAPSGSTFPRNAMGWYRQAPGKERELVAAISYSGGRTYYADSVKGRFTISRDNAKNTVSLQMNSLKPEDTAVYYCAAQPWFTYYYWGQGTQVTVSS | high polyreactivity |
| QVQLVESGGGLVQAGGSLRLSCAPSGSTFQYNAMGWYRQAPGKEREFVAAISWRGGNTYYADSVKGRFTISRDNAKNTVYLQMNSLKPEDTAVYYCAAGRQRYAFKYYYWGQGTQVTVSS | high polyreactivity |
| QVQLVESGGGLVQAGGSLRLSCAPSGSTFYRYSMGWYRHAPGKERELVAAINGGDITNYADSVKGRFTISRDNAKNTVYLQMNSLKPEDTAVYYCAARYTYWGLLRYDYWGQGTQVTVSS | high polyreactivity |
| QVQLVESGGGLVQAGGSLRLSCAPSGYIFAPNAMGWYRQAPGKERELVAAITFSGGSTSYADSVKGRFTISRDNAKNTVYLQMNSLKPEDTAVYYCAAYWYSLYYLFPYDYWGQGTLVTVSS | low polyreactivity |
